For experiment [1], the target named is human CD26 on the cell surface (human, UniProt P27487 1-766). As to the kind of experiment: cell-based or functional assay.
For experiment [2], the target named is T1, Purified recombinant human CD26 (rhDipeptidyl peptidase IV), R&D Systems CAT #1180-SE (human, UniProt P27487 29-766).
T1 construct: Bought recombinant protein; also called hu-CD26; soluble human CD26
The experiment is described as follows: SPR (Biacore), Fab. The procedure: (§1) Fabs produced in E. coli as described below were diluted in PBS in a concentration of ˜0.5 μM for the assay. A typical recording included a 3 minute period of injection of the Fab followed by a period of 15 minutes of dissociation, and analysis was performed based on the raw data of the binding curves accordingly.

The target of experiment [3] is T1, Purified recombinant human CD26 …. The experiment is described as follows: SPR (Biacore), Fab. This is another data set of the same source. A general note: Surface plasmon resonance follows binding to a sensor surface in real time, without labels.
For experiment [4] the target is unchanged. The experiment is described as follows: SPR (Biacore), Fab. This is another data set of the same source.
Experiment [5] shares this target. The experiment is described as follows: SPR (Biacore), Fab. The procedure: as §1
The CD26 binding partner was as shown below.
This is another data set of the same source.

This is an account of results in patent US20070105771A1 (Y S THERAPEUTICS, published 2007).

Where two headings read alike, the source gives them in different places.

T1 sequence (P27487 29-766 limits assumed): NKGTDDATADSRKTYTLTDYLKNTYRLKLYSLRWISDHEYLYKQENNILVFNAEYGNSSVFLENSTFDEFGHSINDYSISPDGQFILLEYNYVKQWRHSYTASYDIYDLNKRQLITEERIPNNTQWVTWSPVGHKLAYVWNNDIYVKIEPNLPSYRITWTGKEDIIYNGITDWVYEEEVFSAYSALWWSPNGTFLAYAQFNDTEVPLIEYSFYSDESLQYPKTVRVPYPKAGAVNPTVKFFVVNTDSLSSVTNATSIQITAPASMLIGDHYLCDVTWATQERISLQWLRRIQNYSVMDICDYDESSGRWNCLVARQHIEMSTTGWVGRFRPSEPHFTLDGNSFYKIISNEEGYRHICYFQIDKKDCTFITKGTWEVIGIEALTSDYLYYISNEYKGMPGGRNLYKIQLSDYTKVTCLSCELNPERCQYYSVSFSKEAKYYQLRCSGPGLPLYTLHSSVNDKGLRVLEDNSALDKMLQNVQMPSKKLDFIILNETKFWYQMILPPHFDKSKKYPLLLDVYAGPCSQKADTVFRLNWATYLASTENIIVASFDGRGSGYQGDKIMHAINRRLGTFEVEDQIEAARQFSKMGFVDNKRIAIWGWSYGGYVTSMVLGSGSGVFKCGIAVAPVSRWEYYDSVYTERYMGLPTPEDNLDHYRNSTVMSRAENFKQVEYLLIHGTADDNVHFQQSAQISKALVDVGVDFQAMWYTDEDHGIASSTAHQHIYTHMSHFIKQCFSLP
Sequence of human CD26 on the cell surface (P27487 whole entry): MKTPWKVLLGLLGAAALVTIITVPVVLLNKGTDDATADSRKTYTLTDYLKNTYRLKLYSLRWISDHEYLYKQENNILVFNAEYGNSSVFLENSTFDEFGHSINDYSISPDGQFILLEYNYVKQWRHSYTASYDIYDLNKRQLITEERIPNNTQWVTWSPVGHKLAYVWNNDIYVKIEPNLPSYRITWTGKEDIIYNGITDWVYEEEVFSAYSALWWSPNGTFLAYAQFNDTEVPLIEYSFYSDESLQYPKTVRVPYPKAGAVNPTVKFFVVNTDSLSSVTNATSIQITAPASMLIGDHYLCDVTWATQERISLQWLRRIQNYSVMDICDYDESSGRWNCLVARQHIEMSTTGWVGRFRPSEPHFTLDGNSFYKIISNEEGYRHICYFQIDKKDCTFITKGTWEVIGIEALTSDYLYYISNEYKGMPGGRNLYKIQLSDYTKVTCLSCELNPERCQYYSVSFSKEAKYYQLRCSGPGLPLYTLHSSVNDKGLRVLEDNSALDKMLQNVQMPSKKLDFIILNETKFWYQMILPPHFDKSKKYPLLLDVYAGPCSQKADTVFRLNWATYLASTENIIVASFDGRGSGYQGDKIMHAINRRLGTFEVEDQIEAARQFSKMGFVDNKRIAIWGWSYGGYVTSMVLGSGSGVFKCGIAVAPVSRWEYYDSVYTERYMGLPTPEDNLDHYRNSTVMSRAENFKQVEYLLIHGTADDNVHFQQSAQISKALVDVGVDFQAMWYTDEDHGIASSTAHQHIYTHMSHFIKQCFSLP

B1: rhuMAb 410 (antibody, human IgG1, V domains shown)
VH: EVQLVQSGGGLKQPGETLRLSCTASGYSLTTYGVHWVRQAPGKGLEWMGVIWGDGRTDYDSSFMSRVTISKDTSKSTAYLQLNSLRAEDTAVYYCTRNRHDWFDYWGQGTTVTVSS
VL: DILMTQSPSSLSASPGDRVTISCRASQDIRNNLNWYQQKPGQAPRLLIYYSSNLHSGVPDRFSGSGSGTDFTLTISRLEPEDFAAYYCQQSIKLPLTFGSGTKVEIKR
For B1, in experiment [1], the “percent inhibition, MTT assay, Jurkat CD26+ cells, 0.05 ug/ml” value was found to be 4%; the “percent inhibition, MTT assay, Jurkat CD26+ cells, 0.25 ug/ml” value came to 10.7%; the “percent inhibition, MTT assay, Jurkat CD26+ cells, 0.5 ug/ml” value stood at 14%; the “percent inhibition, MTT assay, Jurkat CD26+ cells, 2.5 ug/ml” value was determined as 27.5%. For the same molecule, the “percent inhibition, MTT assay, Jurkat CD26+ cells, 5 ug/ml” value in experiment [1] turned out to be 33.5%.

B2: Fab comprising X385 VH and CM03 VL (Fab, V domains shown)
VH: EVQLVQSGGGVKQPGETLRLTCTASGFSLTTYGVHWVRQAPGKGLEWVGVIWGDGRTDYDAAFMSRVTISKDTSKSTAYLQMNSLRAEDTAVYYCMRNRHDWFDYWGQGTTVTVSS
VL: DIQMTQSPSSLSASLGDRVTITCSASQGIRNSLNWYQQKPDGAVKLLIYYSSNLHSGVPSRFSGSGSGTDFSLTISNLEPEDIATYYCQQSIKLPFTFGSGTKLEIK
notes: Fab made in E. coli
As usually defined, the Kd is the free concentration of one partner at which half of the binding sites on the other are occupied at equilibrium, for simple one-to-one binding. As a reminder, the koff is the first-order rate constant of dissociation. The kon is the second-order rate constant of association. On to B2, for which, in experiment [2], the Kd worked out at 1.47 nM, the koff was 0.000375 s⁻¹ and the kon amounted to 256000 M⁻¹ s⁻¹. The Kd in experiment [3] amounted to 1.5 nM.

B3: Fab X430 (X399 VH and X394 VL) (Fab, V domains shown)
VH: EVQLVQSGGGVKQPGETLRLTCTASGFSLSTYGVHWVRQAPGKGLEWVGVIWGDGRTDYDAAFMSRVTISKDTSKSTVYLQMNSLRAEDTAVYYCMRNRHDWFDYWGQGTTVTVSS
VL: DILMTQSPSSLSASPGDRVTISCRASQDIRNNLNWYQQKPGQAPRLLIYYSSNLQTGVPARFSGSGSGTDFTLTISRLEPEDFAAYYCQQSIKLPLTFGSGTKVEIK
notes: also called Fab X429
Turning to B3, in experiment [3], the Kd stood at 1.19 nM and the “ratio of the Kd of CM03 Fab to the Kd of individual clone” value is 1.37. The Kd in experiment [4] was 1.19 nM.

B4: Fab X431 (X420 VH and X380 VL) (Fab, V domains shown)
VH: EVQLVESGGGVKQPGETLRLTCTASGFSLSTYGVHWVRQAPGKGLEWVGVIWGDGRTDYDAAFMSRVTISKDTSKSTVYLQMNSLRAEDTAVYYCMRNRHDWFDYWGQGTTVTVSS
VL: EIEMTQSPSSLSVSAGERATISCSASQDIRNSLNWYQQKPGQAPRLLIYYSSNLHTGVPARFSGSGSGTDFTLTISRLEPEDVAIYYCQQSNKLPLTFGSGTKVEIK
notes: also called Fab X420
For B4, the Kd in experiment [3] and in experiment [4] was 0.92 nM throughout.

B5: Fab comprising X386 VH and CM03 VL (Fab, V domains shown)
VH: EVQLVESGAGVEQPGGTLRLTCTASGFSLTTYGVHWVRQAPGKGLEWMGVIWGDGRTDYDAAFMSRVTISRDTSKSTAYLQLNSLRAEDTAVYYCVRNRHDWFDYWGQGTTVTVSS
VL: DIQMTQSPSSLSASLGDRVTITCSASQGIRNSLNWYQQKPDGAVKLLIYYSSNLHSGVPSRFSGSGSGTDFSLTISNLEPEDIATYYCQQSIKLPFTFGSGTKLEIK
notes: Fab made in E. coli
Turning to B5, in experiment [2], the Kd worked out at 2.71 nM, the koff was 0.000498 s⁻¹ and the kon was 184000 M⁻¹ s⁻¹. Besides, the equilibrium dissociation constant (Kd) in experiment [3] worked out at 2.7 nM.

B6: Fab X399 (X399 VH and X380 VL) (Fab, V domains shown)
VH: EVQLVQSGGGVKQPGETLRLTCTASGFSLSTYGVHWVRQAPGKGLEWVGVIWGDGRTDYDAAFMSRVTISKDTSKSTVYLQMNSLRAEDTAVYYCMRNRHDWFDYWGQGTTVTVSS
VL: EIEMTQSPSSLSVSAGERATISCSASQDIRNSLNWYQQKPGQAPRLLIYYSSNLHTGVPARFSGSGSGTDFTLTISRLEPEDVAIYYCQQSNKLPLTFGSGTKVEIK
notes: Fab made in E. coli
B6: the Kd in experiment [3] and in experiment [4] was 2.85 nM each time.

B7: Fab comprising X384 VH and CM03 VL (Fab, V domains shown)
VH: EVQLVESGAGVKQPGGTLRLTCTASGFSLTTYGVHWVRQAPGKGLEWVGVIWGDGRTDYDAAFMSRVTISKDTSKSTVYLQMNSLRAEDTAVYYCMRNRHDWFDYWGQGTTVTVSS
VL: DIQMTQSPSSLSASLGDRVTITCSASQGIRNSLNWYQQKPDGAVKLLIYYSSNLHSGVPSRFSGSGSGTDFSLTISNLEPEDIATYYCQQSIKLPFTFGSGTKLEIK
notes: Fab made in E. coli
As to B7, in experiment [2], the Kd came to 1.19 nM, the koff was 0.000312 s⁻¹ and the on-rate (kon) was determined as 262000 M⁻¹ s⁻¹. The Kd in experiment [3] is 1.2 nM.

B8: Fab comprising X388 VH and CM03 VL (Fab, V domains shown)
VH: EVQLVQSGGGLKQPGETLRLSCTASGYSLTTYGVHWVRQAPGKGLEWMGVIWGDGRTDYDSSFMSRVTISKDTSKSTAYLQLNSLRAEDTAVYYCTRNRHDWFDYWGQGTTVTVSS
VL: DIQMTQSPSSLSASLGDRVTITCSASQGIRNSLNWYQQKPDGAVKLLIYYSSNLHSGVPSRFSGSGSGTDFSLTISNLEPEDIATYYCQQSIKLPFTFGSGTKLEIK
notes: Fab made in E. coli
Take B8: in experiment [2], the Kd turned out to be 2.98 nM, the off-rate (koff) worked out at 0.000698 s⁻¹ and the kon is 235000 M⁻¹ s⁻¹. Also, the Kd in experiment [3] was 3 nM.

B9: Fab comprising X387 VH and CM03 VL (Fab, V domains shown)
VH: EVQLVESGAELVQPGGSLRLTCKASGFTLNTYGVHWVRQAPGKGLEWMGVIWGGGRTDYDASFMSRVTISKDNSKNTAYLQLNSLRAEDTAVYYCTRSRHDWFDYWGQGTTVTVSS
VL: DIQMTQSPSSLSASLGDRVTITCSASQGIRNSLNWYQQKPDGAVKLLIYYSSNLHSGVPSRFSGSGSGTDFSLTISNLEPEDIATYYCQQSIKLPFTFGSGTKLEIK
notes: Fab made in E. coli
B9: in experiment [2], the Kd stood at 51.1 nM, the koff worked out at 0.01 s⁻¹ and the kon came out at 196000 M⁻¹ s⁻¹. Moreover, the Kd in experiment [3] was found to be 51 nM.

B10: Fab comprising X377 VL and CM03 VH (Fab, V domains shown)
VH: QVKLQESGPGLVQPSQTLSITCTVSGFSLTTYGVHWVRQSPGKGLEWLGVIWGGGRTDYDAAFISRLSISKDNSKSQVFFKMNSLQANDTAIYYCVRNRHDWFDYWGQGTTVTVSS
VL: EIELTQSPSSLSVSLGDRVTISCSASQDIRNNLNWYQQKPGQAPRLLIYYSSNLQTGVPARFSGSGSGTDFTLTISRLEPEDVAAYYCQQSIKLPFTFGSGTKVEIK
notes: Fab made in E. coli; also called X377 Fab
As for B10, in experiment [5], the Kd came out at 1.88 nM, the koff amounted to 0.000596 s⁻¹ and the kon was 317000 M⁻¹ s⁻¹. For the same molecule, the Kd in experiment [3] amounted to 1.9 nM.

B11: Fab comprising X378 VL and CM03 VH (Fab, V domains shown)
VH: QVKLQESGPGLVQPSQTLSITCTVSGFSLTTYGVHWVRQSPGKGLEWLGVIWGGGRTDYDAAFISRLSISKDNSKSQVFFKMNSLQANDTAIYYCVRNRHDWFDYWGQGTTVTVSS
VL: DIEMTQSPSSLSASAGERVTISCRASQGIRNSLNWYQQKPGQAPRLLIYYSSNLQTGVPSRFSGSGSGTDFTLTISRLQAEDFATYYCQQSNKLPFTFGSGTKVEIK
notes: Fab made in E. coli
B11: in experiment [5], the Kd is 2.92 nM, the koff stood at 0.00083 s⁻¹ and the kon turned out to be 285000 M⁻¹ s⁻¹. Further, the Kd in experiment [3] was 2.9 nM.

B12: Fab X394 (X384 VH and X394 VL) (Fab, V domains shown)
VH: EVQLVESGAGVKQPGGTLRLTCTASGFSLTTYGVHWVRQAPGKGLEWVGVIWGDGRTDYDAAFMSRVTISKDTSKSTVYLQMNSLRAEDTAVYYCMRNRHDWFDYWGQGTTVTVSS
VL: DILMTQSPSSLSASPGDRVTISCRASQDIRNNLNWYQQKPGQAPRLLIYYSSNLQTGVPARFSGSGSGTDFTLTISRLEPEDFAAYYCQQSIKLPLTFGSGTKVEIK
notes: Fab made in E. coli
B12: the Kd in experiment [3] and in experiment [4] was 0.58 nM each time. The “ratio of the Kd of CM03 Fab to the Kd of individual clone” value in experiment [3] was 2.81.

B13: Fab comprising X379 VL and CM03 VH (Fab, V domains shown)
VH: QVKLQESGPGLVQPSQTLSITCTVSGFSLTTYGVHWVRQSPGKGLEWLGVIWGGGRTDYDAAFISRLSISKDNSKSQVFFKMNSLQANDTAIYYCVRNRHDWFDYWGQGTTVTVSS
VL: DILLTQSPSSLSATPGERATITCRASQGIRNNLNWYQQKPGQAPRLLIYYSSNLQSGVPSRFSGSGSGTDFTLTISRLQPEDVAAYYCQQSIKLPFTFGSGTKVEIK
notes: Fab made in E. coli
In the case of B13, in experiment [5], the Kd was determined as 1.16 nM, the koff was determined as 0.00067 s⁻¹ and the kon amounted to 578000 M⁻¹ s⁻¹. Besides, in experiment [3], the Kd is 1.2 nM.

B14: Fab comprising X381 VL and CM03 VH (Fab, V domains shown)
VH: QVKLQESGPGLVQPSQTLSITCTVSGFSLTTYGVHWVRQSPGKGLEWLGVIWGGGRTDYDAAFISRLSISKDNSKSQVFFKMNSLQANDTAIYYCVRNRHDWFDYWGQGTTVTVSS
VL: EIELTQSPSSLSVSPGDRVTISCSASQGIRNSLNWYQQKPGQAPRLLIYYSSNLHTGVPARFSGSGSGTDFTLTISRLQAEDFATYYCQQSIKLPLTFGSGTKVEIK
notes: Fab made in E. coli
As for B14, in experiment [5], the Kd worked out at 2.1 nM, the koff is 0.000601 s⁻¹ and the association rate constant (kon) stood at 293000 M⁻¹ s⁻¹. Further, the Kd in experiment [3] is 2.1 nM.

B15: Fab comprising X380 VL and CM03 VH (Fab, V domains shown)
VH: QVKLQESGPGLVQPSQTLSITCTVSGFSLTTYGVHWVRQSPGKGLEWLGVIWGGGRTDYDAAFISRLSISKDNSKSQVFFKMNSLQANDTAIYYCVRNRHDWFDYWGQGTTVTVSS
VL: EIEMTQSPSSLSVSAGERATISCSASQDIRNSLNWYQQKPGQAPRLLIYYSSNLHTGVPARFSGSGSGTDFTLTISRLEPEDVAIYYCQQSNKLPLTFGSGTKVEIK
notes: Fab made in E. coli
In the case of B15, in experiment [5], the Kd was 2.33 nM, the koff stood at 0.000687 s⁻¹ and the kon was 294000 M⁻¹ s⁻¹. In addition, the Kd in experiment [3] amounted to 2.3 nM.

B16: Fab comprising X376 VL and CM03 VH (Fab, V domains shown)
VH: QVKLQESGPGLVQPSQTLSITCTVSGFSLTTYGVHWVRQSPGKGLEWLGVIWGGGRTDYDAAFISRLSISKDNSKSQVFFKMNSLQANDTAIYYCVRNRHDWFDYWGQGTTVTVSS
VL: DILMTQSPSSLSASPGDRVTISCRASQDIRNNLNWYQQKPGQAPRLLIYYSSNLHSGVPDRFSGSGSGTDFTLTISRLEPEDFAAYYCQQSIKLPLTFGSGTKVEIK
notes: Fab made in E. coli
With B16, in experiment [5], the Kd came to 2.31 nM, the koff was determined as 0.000596 s⁻¹ and the kon was found to be 258000 M⁻¹ s⁻¹. In addition, the equilibrium dissociation constant (Kd) in experiment [3] was found to be 2.3 nM.
